*1 amine or outer side, *2 acyl side, *3 side chain or, on linkers, in order; H or OH if unused. Where no end group is shown, it is not given here. Side-chain parts run from the residue outwards. [ ]: non-standard residue; d: D form. The star is where a group is joined. αMePhe(2-F) = C[C@](N)(Cc1ccccc1F)C(=O)O; γGlu = O=C(O)[C@H](CCC(=O)[*:2])N[*:1]; C14 diacid = O=C(O)CCCCCCCCCCCCC(=O)*; αMeY = C[C@](N)(Cc1ccc(O)cc1)C(=O)O; αMeL = CC(C)C[C@](C)(N)C(=O)O; Orn = NCCC[C@H](N)C(=O)O; AEEA = NCCOCCOCC(=O)O; Aib = CC(C)(N)C(=O)O
T1: human GIP receptor (human, UniProt P48546 22-466)
T1 construct: whole, on cells; also called hGIPR; human glucose-dependent insulinotropic polypeptide receptor
T1 sequence (looked up): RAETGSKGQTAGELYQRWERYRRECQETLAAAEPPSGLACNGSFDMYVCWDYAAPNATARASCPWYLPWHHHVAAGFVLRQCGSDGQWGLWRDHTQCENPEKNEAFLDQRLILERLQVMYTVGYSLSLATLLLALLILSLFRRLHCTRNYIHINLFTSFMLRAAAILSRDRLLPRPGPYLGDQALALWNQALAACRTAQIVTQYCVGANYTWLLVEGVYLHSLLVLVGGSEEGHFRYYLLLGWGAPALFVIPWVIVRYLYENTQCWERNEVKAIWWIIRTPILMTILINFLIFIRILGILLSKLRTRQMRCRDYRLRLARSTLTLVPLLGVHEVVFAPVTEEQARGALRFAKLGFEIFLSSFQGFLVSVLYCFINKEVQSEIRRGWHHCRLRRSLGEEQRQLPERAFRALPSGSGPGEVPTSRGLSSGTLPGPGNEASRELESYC

B1: Y-Aib-EGT-αMeF(2F)-TSD-4Pal-Aib-I-αMeL-LD-Orn-K((2-[2-(2-Amino-ethoxy)-ethoxy]-acetyl)-(γ-Glu)-CO-(CH2)12-CO2H)AQ-Aib-EFI-(D-Glu)-αMeY-LIK((2-[2-(2-Amino-ethoxy … (peptide)
peptide: YXEGTXTSDXXIXLDXKAQXEFIXXLIKGGPSSGAPPPS
modifications: Aib2, αMeF(2F)6, 4Pal10, Aib11, αMeL13, Orn16, K17(Z1), Aib20, D-Glu24, αMeY25, K28(Z1), C-term NH2; Z1=AEEA-(γ-Glu)-CO-(CH2)12-CO2H
B2: Y-Aib-EGT-αMeF(2F)-TSD-4Pal-SI-αMeL-LD-Orn-K((2-[2-(2-Amino-ethoxy)-ethoxy]-acetyl)2-(γ-Glu)-CO-(CH2)12-CO2H)AQ-Aib-E-(3ClPhe)-I-(D-Glu)-αMeY-LIEGGK((2-[2-(2-Am … (peptide)
peptide: YXEGTXTSDXSIXLDXKAQXEXIXXLIEGGKSSGAPPPS
modifications: Aib2, αMeF(2F)6, 4Pal10, αMeL13, Orn16, K17(Z1), Aib20, 3ClPhe22, D-Glu24, αMeY25, K31(Z1), C-term NH2; Z1=AEEA2-(γ-Glu)-CO-(CH2)12-CO2H
B3: Y-Aib-EGT-αMeF(2F)-TSDV-Aib-I-αMeL-LD-Orn-K((2-[2-(2-Amino-ethoxy)-ethoxy]-acetyl)2-(γ-Glu)-CO-(CH2)12-CO2H)AQ-Aib-EFI-(D-Glu)-αMeY-LIEGGK((2-[2-(2-Amino-ethoxy … (peptide)
peptide: Y[Aib]EGT[αMePhe(2-F)]TSDV[Aib]I[αMeL]LD[Orn]K([AEEA-AEEA-γGlu-C14 diacid])AQ[Aib]EFI[dE][αMeY]LIEGGK([AEEA-AEEA-γGlu-C14 diacid])SSGAPPPS-NH2
modifications: N-terminus assumed
SMILES: CC[C@H](C)[C@H](NC(=O)[C@H](CC(C)C)NC(=O)[C@](C)(Cc1ccc(O)cc1)NC(=O)[C@@H](CCC(=O)O)NC(=O)[C@@H](NC(=O)[C@H](Cc1ccccc1)NC(=O)[C@H](CCC(=O)O)NC(=O)C(C)(C)NC(=O)[C@H](CCC(N)=O)NC(=O)[C@H](C)NC(=O)[C@H](CCCCNC(=O)COCCOCCNC(=O)COCCOCCNC(=O)CC[C@H](NC(=O)CCCCCCCCCCCCC(=O)O)C(=O)O)NC(=O)[C@H](CCCN)NC(=O)[C@H](CC(=O)O)NC(=O)[C@H](CC(C)C)NC(=O)[C@](C)(CC(C)C)NC(=O)[C@@H](NC(=O)C(C)(C)NC(=O)[C@@H](NC(=O)[C@H](CC(=O)O)NC(=O)[C@H](CO)NC(=O)[C@@H](NC(=O)[C@](C)(Cc1ccccc1F)NC(=O)[C@@H](NC(=O)CNC(=O)[C@H](CCC(=O)O)NC(=O)C(C)(C)NC(=O)[C@@H](N)Cc1ccc(O)cc1)[C@@H](C)O)[C@@H](C)O)C(C)C)[C@@H](C)CC)[C@@H](C)CC)C(=O)N[C@@H](CCC(=O)O)C(=O)NCC(=O)NCC(=O)N[C@@H](CCCCNC(=O)COCCOCCNC(=O)COCCOCCNC(=O)CC[C@H](NC(=O)CCCCCCCCCCCCC(=O)O)C(=O)O)C(=O)N[C@@H](CO)C(=O)N[C@@H](CO)C(=O)NCC(=O)N[C@@H](C)C(=O)N1CCC[C@H]1C(=O)N1CCC[C@H]1C(=O)N1CCC[C@H]1C(=O)N[C@@H](CO)C(N)=O
B4: Y-Aib-EGT-αMeF(2F)-TSDV-αMeS-I-αMeL-LD-Orn-K((2-[2-(2-Amino-ethoxy)-ethoxy]-acetyl)2-(γ-Glu)-CO-(CH2)12-CO2H)AQ-Aib-EFI-(D-Glu)-αMeY-LIEGGK((2-[2-(2-Amino-ethox … (peptide)
peptide: YXEGTXTSDVXIXLDXKAQXEFIXXLIEGGKSSGAPPPS
modifications: Aib2, αMeF(2F)6, αMeS11, αMeL13, Orn16, K17(Z1), Aib20, D-Glu24, αMeY25, K31(Z1), C-term NH2; Z1=AEEA2-(γ-Glu)-CO-(CH2)12-CO2H
B5: Y-Aib-EGT-αMeF(2F)-TSD-4Pal-SI-αMeL-LD-Orn-K((2-[2-(2-Amino-ethoxy)-ethoxy]-acetyl)2-(γ-Glu)-CO-(CH2)12-CO2H)AQ-Aib-EFI-(D-Glu)-αMeY-LIEGGP S SGAPPP … (peptide)
peptide: YXEGTXTSDXSIXLDXKAQXEFIXXLIEGGPSSGAPPPSK
modifications: Aib2, αMeF(2F)6, 4Pal10, αMeL13, Orn16, K17(Z1), Aib20, D-Glu24, αMeY25, K40(Z1), C-term NH2; Z1=AEEA2-(γ-Glu)-CO-(CH2)12-CO2H
B6: Y-Aib-EGT-αMeF(2F)-TSD-4Pal-Aib-I-αMeL-LD-Orn-K((2-[2-(2-Amino-ethoxy)-ethoxy]-acetyl)-(γ-Glu)-CO-(CH2)12-CO2H)AQ-Aib-EFI-(D-Glu)-αMeY-LIEGGPSSGAPPPSK((2-[2-(2- … (peptide)
peptide: YXEGTXTSDXXIXLDXKAQXEFIXXLIEGGPSSGAPPPSK
modifications: Aib2, αMeF(2F)6, 4Pal10, Aib11, αMeL13, Orn16, K17(Z1), Aib20, D-Glu24, αMeY25, K40(Z1), C-term NH2; Z1=AEEA-(γ-Glu)-CO-(CH2)12-CO2H
B7: Y-Aib-EGT-αMeF(2F)-TSD-4Pal-Aib-I-αMeL-LD-Orn-QAQ-Aib-K((2-[2-(2-Amino-ethoxy)-ethoxy]-acetyl)2-(γ-Glu)-CO-(CH2)12-CO2H)FI-(D-Glu)-αMeY-LIEGGPSSGAPPPSK((2-[2-(2 … (peptide)
peptide: YXEGTXTSDXXIXLDXQAQXKFIXXLIEGGPSSGAPPPSK
modifications: Aib2, αMeF(2F)6, 4Pal10, Aib11, αMeL13, Orn16, Aib20, K21(Z1), D-Glu24, αMeY25, K40(Z1), C-term NH2; Z1=AEEA2-(γ-Glu)-CO-(CH2)12-CO2H
B8: Y-Aib-EGT-αMeF(2F)-TSD-4Pal-Aib-I-αMeL-LD-Orn-QAQ-Aib-K((2-[2-(2-Amino-ethoxy)-ethoxy]-acetyl)2-(γ-Glu)-CO-(CH2)12-CO2H)FI-(D-Glu)-αMeY-LIK((2-[2-(2-Amino-ethox … (peptide)
peptide: YXEGTXTSDXXIXLDXQAQXKFIXXLIKGGPSSGAPPPS
modifications: Aib2, αMeF(2F)6, 4Pal10, Aib11, αMeL13, Orn16, Aib20, K21(Z1), D-Glu24, αMeY25, K28(Z1), C-term NH2; Z1=AEEA2-(γ-Glu)-CO-(CH2)12-CO2H
B9: Y-Aib-EGT-αMeF(2F)-TSDY-Aib-I-αMeL-LD-Orn-QAQ-Aib-Orn-FIK((2-[2-(2-Amino-ethoxy)-ethoxy]-acetyl)3-(γ-Glu)-CO-(CH2)12-CO2H)-αMeY-LIK((2-[2-(2-Amino-ethoxy)-ethox … (peptide)
peptide: YXEGTXTSDYXIXLDXQAQXXFIKXLIKGGPSSGAPPPS
modifications: Aib2, αMeF(2F)6, Aib11, αMeL13, Orn16, Aib20, Orn21, K24(Z1), αMeY25, K28(Z1), C-term NH2; Z1=AEEA3-(γ-Glu)-CO-(CH2)12-CO2H
B10: Y-Aib-EGT-αMeF(2F)-TSD-4Pal-Aib-I-αMeL-LD-Orn-QAQ-Aib-EFIK((2-[2-(2-Amino-ethoxy)-ethoxy]-acetyl)2-(γ-Glu)-CO-(CH2)12-CO2H)-αMeY-LIK((2-[2-(2-Amino-ethoxy)-etho … (peptide)
peptide: YXEGTXTSDXXIXLDXQAQXEFIKXLIKGGPSSGAPPPS
modifications: Aib2, αMeF(2F)6, 4Pal10, Aib11, αMeL13, Orn16, Aib20, K24(Z1), αMeY25, K28(Z1), C-term NH2; Z1=AEEA2-(γ-Glu)-CO-(CH2)12-CO2H
B11: Y-Aib-EGT-αMeF(2F)-TSD-4Pal-Aib-I-αMeL-LD-Orn-QAQ-Aib-Orn-FIK((2-[2-(2-Amino-ethoxy)-ethoxy]-acetyl)-(γ-Glu)-CO-(CH2)12-CO2H)-αMeY-LIK((2-[2-(2-Amino-ethoxy)-et … (peptide)
peptide: YXEGTXTSDXXIXLDXQAQXXFIKXLIKGGPSSGAPPPS
modifications: Aib2, αMeF(2F)6, 4Pal10, Aib11, αMeL13, Orn16, Aib20, Orn21, K24(Z1), αMeY25, K28(Z1), C-term NH2; Z1=AEEA-(γ-Glu)-CO-(CH2)12-CO2H
B12: Y-Aib-EGT-αMeF(2F)-TSD-4Pal-Aib-I-αMeL-LD-Orn-QAQ-Aib-EFIK((2-[2-(2-Amino-ethoxy)-ethoxy]-acetyl)3-(γ-Glu)-CO-(CH2)12-CO2H)-αMeY-LIK((2-[2-(2-Amino-ethoxy)-etho … (peptide)
peptide: YXEGTXTSDXXIXLDXQAQXEFIKXLIKGGPSSGAPPPS
modifications: Aib2, αMeF(2F)6, 4Pal10, Aib11, αMeL13, Orn16, Aib20, K24(Z1), αMeY25, K28(Z1), C-term NH2; Z1=AEEA3-(γ-Glu)-CO-(CH2)12-CO2H

How the values were obtained:
[1] = target: T2, human GLP-1 receptor (human, UniProt P43220 24-463); assay: SPA competition vs [125I]-GLP-1, hGLP-1R membranes
T2 construct: whole, on cells; also called hGLP-1R; human glucagon-like peptide-1 receptor
Method: The binding buffer contains 25 mM HEPES, pH 7.4, 2.5 mM CaCl₂, 1 mM MgCl₂, 0.1% (w/v) bacitracin, 0.003% (w/v) TWEEN®-20, and Roche Complete™ Protease Inhibitors without EDTA.
(§1) Data are analyzed using four-parameter (curve maximum, curve minimum, IC₅₀, Hill slope) nonlinear regression routines (Genedata Screener, version 12.0.4, Genedata AG, Basal, Switzerland). […] Values for Kᵢ are reported as the geometric mean, with error expressed as the standard error of the mean (SEM) and n is equal to the number of independent replicates (determined in assays performed on different days). Geometric Means are calculated as follows: […]

[2] = target: T1, human GIP receptor; assay: SPA competition vs [125I]-GIP, hGIPR membranes
Method: The binding buffer contains 25 mM HEPES, pH 7.4, 2.5 mM CaCl₂, 1 mM MgCl₂, 0.1% (w/v) bacitracin, 0.003% (w/v) TWEEN®-20, and Roche Complete™ Protease Inhibitors without EDTA. […] Plates are sealed and mixed on a plate shaker (setting 6) for 1 minute and read with a PerkinElmer Trilux MicroBeta® scintillation counter after 2.5 to 12 hours of incubation/settling time at room temperature.
as §1

| Binder | Ki [1] [pM] | Ki [2] [pM] |
| --- | --- | --- |
| B1 | 2170 | 74.7 |
| B2 | 1590 | 132 |
| B3 | 1260 | 126 |
| B4 | 1170 | 161 |
| B5 | 3130 | 80.7 |
| B6 | 2070 | 91 |
| B7 | 947 | 91.2 |
| B8 | 964 | 64 |
| B9 | 246 | 24.9 |
| B10 | 1330 | 37.5 |
| B11 | 224 | 23 |
| B12 | 433 | 52.8 |
